Assay results published in paper PMC12597263.

Target: T1, recombinant human (rh) BMP2 (human) (UniProt P12643)
T1 sequence: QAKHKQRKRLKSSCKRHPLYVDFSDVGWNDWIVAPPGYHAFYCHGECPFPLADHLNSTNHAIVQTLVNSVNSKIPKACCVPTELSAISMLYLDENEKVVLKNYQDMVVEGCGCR

- GREM1-mCherry uptake into HCT116 cells (integrated mCherry fluorescence per cell) from conditioned medium with 200 ng/ml BMP2 versus vehicle, overnight (16 h): 5 fold
B1: GREM1^WT-mCherry (human Gremlin1 fused to mCherry) (natural protein)
chain: KKKGSQGAIPPPDKAQHNDSEQTQSPQQPGSRNRGRGQGRGTAMPGEEVLESSQEALHVTERKYLKRDWCKTQPLKQTIHEEGCNSRTIINRFCYGQCNSFYIPRHIRKEEGSFQSCSFCKPKKFTTMMVTLNCPELQPPTKKKRVTRVKQCRCISIDLD
